Data set [1] concerns the target T1, GST-OsbZIP46 (Oryza sativa, UniProt Q69TW5 1-324).
T1 sequence: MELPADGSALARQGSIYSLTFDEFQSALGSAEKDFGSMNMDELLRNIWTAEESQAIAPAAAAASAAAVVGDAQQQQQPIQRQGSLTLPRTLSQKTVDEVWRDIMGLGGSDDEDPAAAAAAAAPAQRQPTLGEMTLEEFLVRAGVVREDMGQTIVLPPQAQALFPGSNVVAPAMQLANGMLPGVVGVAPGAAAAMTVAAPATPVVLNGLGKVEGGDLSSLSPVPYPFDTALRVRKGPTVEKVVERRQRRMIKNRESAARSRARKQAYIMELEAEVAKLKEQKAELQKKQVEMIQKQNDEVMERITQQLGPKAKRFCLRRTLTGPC
The data set is described as follows: EMSA; LightShift Chemiluminescent EMSA kit, 20 min at room temperature, 5% native polyacrylamide gel; buffer, salt and pH not stated. The following applies: protein: recombinant; tags: GST (N-terminal, pGEX-6p-1); chain copies: 2. Background: Mobility shift assays separate free from complexed probe on a gel.

In data set [2] the target is T1, GST-OsbZIP46. The data set is described as follows: EMSA; labeled mutant probe; LightShift Chemiluminescent EMSA kit, 20 min at room temperature, 5% native polyacrylamide gel; buffer, salt and pH not stated. The settings on record: protein: recombinant; tags: GST (N-terminal, pGEX-6p-1); chain copies: 2; label: 3' biotin.

Positions count from the first letter of the chain named.

B1: YUC8-Probe (YUC8/REIN7 promoter, P3 G-box) (dsDNA)
DNA 1: GTTGGAAAGCGTATTTTATTCGCAACGTGCGGTTCTTCCAGTTTCTCGGC
DNA 2: GCCGAGAAACTGGAAGAACCGCACGTTGCGAATAAAATACGCTTTCCAAC
With B1, in the data set with GST-OsbZIP46 [1], the binding result was “binds”.

B2: YUC8-Mutant Probe (dsDNA)
DNA 1: B1 DNA 1 with C26A, G27A, T28A, G29A
DNA 2: B1 DNA 2 with C22T, A23T, C24T, G25T
On to B2, for which the binding result in the data set with GST-OsbZIP46 [2] was “no binding”.

The values are drawn from article PMC10022642, “Abscisic acid promotes auxin biosynthesis to inhibit primary root elongation in rice”.
